T1: CD134 expressed on the cell surface of HT1080_OX40 cells (human, UniProt P43489 29-277)
T1 sequence (looked up): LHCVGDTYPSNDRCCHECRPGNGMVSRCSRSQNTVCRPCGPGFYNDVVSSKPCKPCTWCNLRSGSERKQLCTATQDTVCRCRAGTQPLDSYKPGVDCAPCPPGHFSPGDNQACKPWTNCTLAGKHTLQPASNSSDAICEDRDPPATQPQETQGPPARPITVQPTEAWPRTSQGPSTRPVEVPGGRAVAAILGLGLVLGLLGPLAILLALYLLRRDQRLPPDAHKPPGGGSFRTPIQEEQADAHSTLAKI

T2: CD134 protein (His-tagged, Sino Biological Inc. 10481-H08H) (human, UniProt P43489 29-216)
T2 construct: bought protein coated on ELISA plates; also called OX40; TNFRSF4; not shown: His tag
T2 sequence (looked up): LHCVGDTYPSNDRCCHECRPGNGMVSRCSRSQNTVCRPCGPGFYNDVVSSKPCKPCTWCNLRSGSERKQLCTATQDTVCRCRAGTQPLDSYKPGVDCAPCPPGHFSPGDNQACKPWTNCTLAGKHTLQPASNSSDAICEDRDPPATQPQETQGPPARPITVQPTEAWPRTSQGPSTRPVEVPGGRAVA


Tests used:
[1] = target: T1, CD134 expressed on the cell surface of …; test: cell-based or functional assay
[2] = target: T1, CD134 expressed on the cell surface of …; test: HT1080_OX40 cells, imaging
[3] = target: T2, CD134 protein (His-tagged, Sino …); test: ELISA, coated His-tagged CD134
Also: test concentration or dose not given here.

Binder	Functional assay Cross-linked by F(ab′)2 fragment IL-8 [1] [abs. corr.]	Functional assay IL-8 [1] [abs. corr.]	Cellular binding assay [RFU] [2] [RFU]	ELISA [abs. corr.] [3] [abs. corr.]
P018.S.11.A.H05 (antibody, V domains shown, V regions on human Ig constant parts; also called AB134_48) VH: QQRLVESGGGLVKPGASLTLTCTASGFSFSSGYDMCWVRQAPGKGLEWVGCIDTATDTIYYASWAPGRFTISKTSSTMVTLQMTSLTAADTATYFCARSVGGVDYAIDLWGPGTLVTVSS VL: AYDMTQTPVSVEVPVGGTVTIKCQASQNIGSRLVWYQQKPGQSPKFLIYYASNLASGVSSRFKGSGSGTQFTLTISDVQSDNAATYYCQQTYSYSDVDDTFGGGTEVVVK	2.01	1.21	478	1.69
P018.S.08.A.B03 (antibody, V domains shown, V regions on human Ig constant parts; also called AB134_19) VH: QSVEESGGRLVTPGTPLTLTCTVSGFSLSRYAITWVRQAPGKGLEWIGIISSSGTTYYASWAKGRFTISKTSTTVDLKITSPTTEDTAIYFCARAIAGDAGYVYAIDWLDLWGQGTLVTVSS VL: DPVLTQTPSSASEPVGGTVTIKCQASEYISNYLSWYQQKPGQPPKLLIFGASTLESGVPSRFSGSGSGTEFTLTISGVQSADAATYYCQGGYFSSSTTYVAFGGGTEVVVR	1.94	0.709	477	2.66
P018.S.11.A.D06 (antibody, V domains shown, V regions on human Ig constant parts; also called AB134_32) VH: QSLEESGGRLVKPGESLTLTCTVSEFSLSSNAMGWVRQAPGKGLEFIGLIDSGGDAYYATWAKGRFTISKTSSTTVDLKATSLTTEDTATYFCGRGYWFPRLGLWGQGTLVTVSS VL: AAVLTQTPSPVSAAVGGTVSINCQSTKNVYLNNWLGWFQKKPGQPPKLLIYDASTLASGVPSRFKGSGSGTEFTLTISDLESDDAATYYCAGAYDDNSDHTFGGGTEVVVK	1.97	0.019	130	0.744
P018.S.04.A.C06 (antibody, V domains shown, V regions on human Ig constant parts; also called AB134_8) VH: QSVEESGGRLVTPGTPQTLTCTVSGFSLSSYAMSWVRQAPGKGLEWIGIISSSGSTYYASWAKGRFTISKTSTTVDLKITSPTTEDTATYFCARDAYPSYSPFGYYFTLWGQGTLVTVSS VL: AIKMTQTPASVSAAVGGTVSINCQASEDIYNYLAWYQQKPGQPPKLLIYDASDLASGVPSRFKGSGSGKQFTLTISGVQSDDAATYYCQHGYFTYSGENAFGGGTEVVVK	2	0.538	458	2.5
P018.S.11.A.A04 (antibody, V domains shown, V regions on human Ig constant parts; also called AB134_21) VH: QSVEESGGRLVTPGTPLTLTCTVSGFSLSSYAMGWVRQAPGKGLEYIGVISTSANTYYATWAKGRFTISKTSTTVDLRITSPTTEDTATYFCARVVGLYDSYGDVDATYDAFDPWGPGTLVTVSS VL: AQVLTQTASPVSAAVGDTVTINCQSSQSVYNNNLLSWYQQKPGQPPKLLVYDASNLASGVPHRFSGSGSGTQFTLTISGVQSDDAATYYCLGGYDDDADIYAFGGGTEVVVK	1.99	0.533	582	2.1
P018.S.11.A.F03 (antibody, V domains shown, V regions on human Ig constant parts; also called AB134_39) VH: QEQLVESGGGLVQPEGSLTLTCKASGFDFNNNAMCWVRQAPGKGLEWIACIYDGSSGSTYYASWAKGRFTISKTSSSTVTLQMTSLTAADTATYFCARAYAAYTVYDYAFNLWGPGTLVTVSS VL: DVVMTQTPASVSEPVGGTVTIKCQASQSIGSDLAWYQQKPGQPPKLLIYYTTNLETGVSSRFKGSGSGTQFTLTISDLESADAATYYCQYADRSSYSFGGGTEVVVK	1.94	0.38	522	1.85

Next, values leading:

Functional assay Cross-linked by F(ab′)2 fragment IL-8 [1] [abs. corr.]	Functional assay IL-8 [1] [abs. corr.]	Cellular binding assay [RFU] [2] [RFU]	ELISA [abs. corr.] [3] [abs. corr.]	Binder
1.83	0.707	559	1.34	P018.S.12.A.D03 (antibody, V domains shown, V regions on human Ig constant parts; also called AB134_68) VH: QERLVESGGGLVKPGASLTLTCTASGFSFSSGYDMCWVRQAPGKGLEWVGCIDTGTGTIYYASWAPGRFTISETSSTMVTLQMTSLTAADTATYFCARSVGGYDYAIDLWGPGTLVTVSS VL: AYDMTQTPASVEVPVGGTVTIKCQASQNIGSRLVWYQQKPGQSPKFLIYYASNLASGVSSRFKGSGSGTQFTLTISDVQSDNAATYYCQQTYSYSDVDDTFGGGTEVVVK
1.89	-0.121	295	1.98	P018.S.12.A.H04 (antibody, V domains shown, V regions on human Ig constant parts; also called AB134_90) VH: QSVEESGGRLVTPGTPLTLTCTASGFSLSDYYMSWVRQAPGKGLEWIGFMNSGGNAYYASWASGRFTISKTSTTVDLKITSPTTEDTATYFCVRDLSRFSLWGRGTLVIVSS VL: AAVLTQTPSPVSAAVGGTVTINCQASPSVYSDYLSWFQQKPGQAPKLLIYWASTLTSGVPSRFSGSGSGTQFTLTISDVQSDDAATYYCAGGYSGNSDVWAFGGGTEVVVK
1.95	0.289	551	2.11	P018.S.12.A.F04 (antibody, V domains shown, V regions on human Ig constant parts; also called AB134_80) VH: QQQLEESGGGLVKPGGTLTLTCTASGIDFSSYWMWWVRQPPGKGLEWVACIYNGDGSTYYASWAKGRFTISKTSSTTVTLQMTSLTAADTATYFCARDFHLWGPGTLVTVSS VL: AQVLTQTASPVSAAVGSTVTINCQASQNIYKNNYLSWYQQKPGQPPKGLIYSASTLDSGVPLRFSGSGSGTKFTLTISDVQSDDAATYYCLGSVACSGPDCIVFGGGTEVVVK
1.99	0.185	549	2.07	P018.S.12.A.F02 (antibody, V domains shown, V regions on human Ig constant parts; also called AB134_78) VH: QSLEESGGRLVTPGTPLTLTCTASGFSLIKSHINWVRQAPGKGLEWVGGIAYDDNTYYANWAKGRFTISKTSTTVDLRITSPTTADTATYFCAREDSSGWGSFNLWGQGTLVTVSS VL: AQVLTQTPSSVSAAVGGTVTISCQSSQSVYATNQLSWFQQKSGQPPKRLIYSASTLASGVSSRFKGSGSGTQFTLTISGVQSDDAATYYCQGAYDCSGGDCRAFGGGTEVVVK
2	0.461	482	2.04	P018.S.12.A.E03 (antibody, V domains shown, V regions on human Ig constant parts; also called AB134_74) VH: QSVEESGGRLVTPGTPLTLTCTVAGIDLNICGMSWVRQAPGKGLEWIGIIYPSDYTYYATWAKGRFTISKTSTTVDLKITSPTTEDTATYFCARGLGHAWSHFDLWGQGTLVTVSS VL: AFELTQTPASVSEPVGGTVTIKCQASQSIGSDLAWYQQKPGQPPKLLIYSVSNLPSGVSSRFKGSRSGTEYTLTISDLESADAATYYCQSYYGTITTGYIAFGGGTEVVVK
1.97	-0.167	560	2.21	P018.S.12.A.B02 (antibody, V domains shown, V regions on human Ig constant parts; also called AB134_57) VH: QSLEESGGRLVTPGTPLTLTCTVSGIDLSKYTMTWVRQAPGKGLEWIGLISFGGRGGTWYANWAKGRFTISKTSTTVDLRIASPTTEDTATYFCARARYSGTNYDYFNLWGQGTLVTVSS VL: AYDMTQTPASVEVAVGGTVTIKCQASQSISNWLAWYQQKPGQRPKLLIYGASNLESGVPSRFKGSGSGTDFTLTISDLESADAATYYCQQGYSSDGVTNAFGGGTEVVVE
1.95	0.567	498	2.52	P018.S.11.A.H06 (antibody, V domains shown, V regions on human Ig constant parts; also called AB134_49) VH: QSLEESGGRLVTPGTPLTLTCTVSGFSLSTYAMIWVRQAPGEGPEWIGLIAGGGNTWYASWAKGRFTISKTSTTVDLKITSPTTEDTATYFCARADYLGYGNNFWGQGTLVTVSS VL: AAVLTQTPSPVSAAVGGTVTINCQASQSVYNNNYLAWYQQKPGQPPKLLIYWASNLASGVPSRFSGSGSGTQFSLTISGVQSDDAATYYCLGVYDDDADNGFGGGTEVVVK
1.95	0.393	493	1.44	P018.S.12.A.A03 (antibody, V domains shown, V regions on human Ig constant parts; also called AB134_52) VH: LEQSAGGAEGGLVKPGGSLELCCKASGFSLNNNYWICWVRQAPGKGLEWIGCIYVGVVSLTYSASWVNGRFTLSKDIDQSTGCLQLNSLTAADTAMYYCARSLYSGYAGYGDGYYGMDLWGPGTLVTVSS VL: GVVMTQTPASVSDPVGGTVTIKCQASQSIGSDLAWYQQKPGQPPKLLIYAASNLASGVSSRFSGIRSGTEFTLTISDLESADAATYYCQCTDYVDSHDTFGGGTEVVVK

Reference: US20210253725A1 (BIONTECH, published 2021)
